Test results taken from PMC5477539.

Test system: DNA polymerase III core (alpha-epsilon-theta) (Escherichia coli)
Test: single-molecule optical tweezers; fit of exonucleolysis initiation rate vs protein concentration (two-step model)
Conditions: biotinylated oligonucleotide ligated at one end; Optical tweezers buffer, salt, pH and temperature not given in the material; constant template force (55 pN for k2)

“primer-template junction of single stretched DNA (8.1 kbp pBACgus11 construct or 38.5 kbp lambda DNA)” showed a Kd of 130 nM.
